Data taken from article PMC8752778, “The RNA methyltransferase METTL8 installs m3C32 in mitochondrial tRNAsThr/Ser(UCN) to optimise tRNA structure and mitochondrial translation”.

Columns and labels:
His14-MBP-METTL8 [1] = target: T1, His14-MBP-METTL8 (Homo sapiens, UniProt B3KW44 1-407); assay: fluorescence anisotropy; 30 mM phosphate pH 7.3, 200 mM KCl, 20 nM labelled oligonucleotide, 0-2 uM protein, 5 min at room temperature, measured at 22 C; conditions: protein: recombinant; tags: N-terminal His14-MBP; label: 5' fluorescein; hairpin
T1 sequence: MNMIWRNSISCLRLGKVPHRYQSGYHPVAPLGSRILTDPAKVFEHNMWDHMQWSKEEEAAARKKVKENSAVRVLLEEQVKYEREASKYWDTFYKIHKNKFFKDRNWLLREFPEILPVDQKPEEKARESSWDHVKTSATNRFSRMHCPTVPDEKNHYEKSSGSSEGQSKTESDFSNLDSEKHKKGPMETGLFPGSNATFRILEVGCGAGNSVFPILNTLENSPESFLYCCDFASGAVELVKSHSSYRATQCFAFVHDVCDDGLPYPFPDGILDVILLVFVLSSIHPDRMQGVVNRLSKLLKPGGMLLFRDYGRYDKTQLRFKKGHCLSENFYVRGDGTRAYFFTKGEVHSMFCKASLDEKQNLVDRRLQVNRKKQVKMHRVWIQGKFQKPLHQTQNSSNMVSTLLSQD

His14-MBP-METTL8 [2] = target: T1, His14-MBP-METTL8; assay: fluorescence anisotropy; affinity similar to ASLs; Kd only in figure; 30 mM phosphate pH 7.3, 200 mM KCl, 20 nM labelled oligonucleotide, 0-2 uM protein, 5 min at room temperature, measured at 22 C; conditions: protein: recombinant; tags: N-terminal His14-MBP; label: fluorescein (5' click per Methods); single strand
His14-MBP-METTL8 [3] = target: T1, His14-MBP-METTL8; assay: fluorescence anisotropy; up to 2 uM protein; 30 mM phosphate pH 7.3, 200 mM KCl, 20 nM labelled oligonucleotide, 0-2 uM protein, 5 min at room temperature, measured at 22 C; conditions: protein: recombinant; tags: N-terminal His14-MBP; label: 5' fluorescein
His14-MBP-METTL8 [4] = target: T1, His14-MBP-METTL8; assay: fluorescence anisotropy; high affinity; lower than i6A37 ASL; Kd only in figure; 30 mM phosphate pH 7.3, 200 mM KCl, 20 nM labelled oligonucleotide, 0-2 uM protein, 5 min at room temperature, measured at 22 C; conditions: protein: recombinant; tags: N-terminal His14-MBP; label: fluorescein (5' hexynyl/6FAM azide click); hairpin
His14-MBP-METTL8 [5] = target: T1, His14-MBP-METTL8; assay: fluorescence anisotropy; high affinity; Kd only in figure; 30 mM phosphate pH 7.3, 200 mM KCl, 20 nM labelled oligonucleotide, 0-2 uM protein, 5 min at room temperature, measured at 22 C; conditions: protein: recombinant; tags: N-terminal His14-MBP; label: fluorescein (5' click per Methods); hairpin
His14-MBP-METTL8 [6] = target: T1, His14-MBP-METTL8; assay: fluorescence anisotropy; 30 mM phosphate pH 7.3, 200 mM KCl, 20 nM labelled oligonucleotide, 0-2 uM protein, 5 min at room temperature, measured at 22 C; conditions: protein: recombinant; tags: N-terminal His14-MBP; label: fluorescein (5' click per Methods); hairpin

Work on GUUGGCUUGAAACCAGCU (structured_RNA, i6A at strand position 11 (A37)) [mt-tRNASer(UCN) i6A37 ASL] yielded a Kd (His14-MBP-METTL8 [1]) of 200 nM.

GUAAAAGUCGUAACAAAGGU (ssRNA) [Unstructured RNA R420]: binds (His14-MBP-METTL8 [2]).

GATGTGCAGCTGCACATC (ssDNA) [DNA oligonucleotide]: no binding (His14-MBP-METTL8 [3]).

GUUGGCUUGAAACCAGCU (structured_RNA) [mt-tRNASer(UCN) ASL unmodified]: binds (His14-MBP-METTL8 [4]).

GACAUACUGACCCUUCAAAUA (ssRNA) [Unstructured RNA 2]: binds (His14-MBP-METTL8 [2]).

UCGGGCCCAUACCCCGA (structured_RNA) [mt-tRNAMet ASL]: binds (His14-MBP-METTL8 [5]).

For GUUGGCUUGAAACCAGCU (structured_RNA, m3C at strand position 6 (C32); i6A at strand position 11 (A37)) [mt-tRNASer(UCN) m3C32 i6A37 ASL], the binding signal (His14-MBP-METTL8 [6]) was ~2.5 fold weaker than i6A37 ASL (N6).
